From publication PMC2958309 (Journal of Molecular and Cellular Cardiology, 2010)
Residue numbers refer to the chain shown, from its start. Where two headings read alike, the source gives them in different places. One block for each binder: values may come before it.

Experiments:
Experiment in all cases: SPR
[1] = biological target: T1, wild type sorcin (soluble resistance-related calcium binding protein) ( (human or Chinese hamster …, UniProt P05044 1-198))
T1 sequence (looked up): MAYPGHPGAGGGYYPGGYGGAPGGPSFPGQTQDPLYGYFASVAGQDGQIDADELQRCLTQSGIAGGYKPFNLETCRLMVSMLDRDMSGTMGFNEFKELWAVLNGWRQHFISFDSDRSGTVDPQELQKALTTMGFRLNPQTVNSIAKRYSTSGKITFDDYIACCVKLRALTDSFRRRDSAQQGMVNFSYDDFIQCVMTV

[2] = biological target: T1, wild type sorcin (soluble …); remark: listed apart in the source
[3] = biological target: T1, wild type sorcin (soluble …); remark: listed apart in the source
[4] = biological target: T2, sorcin W105G variant ( (human or Chinese hamster …, UniProt P05044 1-198, W105G))
T2 sequence (looked up): T1 sequence (looked up) with W105G

koff [1]: 0.9 ± 0.4 s⁻¹
Kd [2]: 1.2 µM
koff [2]: 0.08 ± 0.1 s⁻¹
kon [2]: 70000 M⁻¹ s⁻¹
Kd [3]: 7 µM
koff [3]: 0.27 ± 0.1 s⁻¹
kon [3]: 40000 M⁻¹ s⁻¹
binding result [4]: binds
B1: NCX1 Calcium Binding Domain 1 (CBD1) (domain or fragment, Mus musculus, UniProt P70414 397-539, looked up)
chain: MAENDPVSKIFFEQGTYQCLENCGTVALTIMRRGGDLSTTVFVDFRTEDGTANAASDYEFTEGTVIFKPGETQKEIRVGIIDDDIFEEDENFLVHLSNVRVSSDVSEDGILESNHASSIACLGSPSTATITIFDDDHAGIFTF

koff [1]: 0.6 ± 0.2 s⁻¹
Kd [2]: 1 µM
koff [2]: 0.05 ± 0.03 s⁻¹
kon [2]: 50000 M⁻¹ s⁻¹
Kd [3]: 3 µM
koff [3]: 0.24 ± 0.1 s⁻¹
kon [3]: 80000 M⁻¹ s⁻¹
B2: NCX1 Calcium Binding Domain 2 (CBD2) (domain or fragment, Mus musculus, UniProt P70414 527-712, looked up)
chain: TIFDDDHAGIFTFEEPVTHVSESIGIMEVKVLRTSGARGNVIIPYKTIEGTARGGGEDFEDTCGEPEFQNDEIVKTISVKVIDDEEYEKNKTFFIEIGEPRLVEMSEKKALLLNELGGFTLTGKEMYGQPIFRKVHARDHPIPSTVITISEEYDDKQPLTSKEEEERRIAEMGRPILGEHTKLEVI
